Experimental data reported in article PMC8601423 (PLoS ONE, 2021).

B1: SARS-CoV-2 RBM peptide S438-K462 with S438-D442 removed (N-terminal truncation, on peptide array) (peptide)
peptide: SKVGGNYNYLYRLFRKSNLK
B2: SARS-CoV-2 RBM 20mer F486-Y505 (on peptide array) (peptide)
peptide: not shown
B3: SARS-CoV-2 RBM peptide S438-K462 with S459-K462 removed (C-terminal truncation, on peptide array) (peptide)
peptide: SNNLDSKVGGNYNYLYRLFRK
B4: SARS-CoV-2 RBM peptide E484-Y508 with E484 and G485 removed (N-terminal truncation, on peptide array) (peptide)
peptide: FNCYFPLQSYGFQPTNGVGYQPY
B5: SARS-CoV-2 RBM peptide E484-Y508 with Q506-Y508 removed (C-terminal truncation, on peptide array) (peptide)
peptide: EGFNCYFPLQSYGFQPTNGVGY

Each binder was assayed against human ACE2-Fc (Q18-S740) recombinant protein (human, UniProt Q9BYF1 18-740) (assay: peptide or protein array). Conditions: both partners purified.
Sequence of human ACE2-Fc (Q18-S740) recombinant protein (Q9BYF1 18-740): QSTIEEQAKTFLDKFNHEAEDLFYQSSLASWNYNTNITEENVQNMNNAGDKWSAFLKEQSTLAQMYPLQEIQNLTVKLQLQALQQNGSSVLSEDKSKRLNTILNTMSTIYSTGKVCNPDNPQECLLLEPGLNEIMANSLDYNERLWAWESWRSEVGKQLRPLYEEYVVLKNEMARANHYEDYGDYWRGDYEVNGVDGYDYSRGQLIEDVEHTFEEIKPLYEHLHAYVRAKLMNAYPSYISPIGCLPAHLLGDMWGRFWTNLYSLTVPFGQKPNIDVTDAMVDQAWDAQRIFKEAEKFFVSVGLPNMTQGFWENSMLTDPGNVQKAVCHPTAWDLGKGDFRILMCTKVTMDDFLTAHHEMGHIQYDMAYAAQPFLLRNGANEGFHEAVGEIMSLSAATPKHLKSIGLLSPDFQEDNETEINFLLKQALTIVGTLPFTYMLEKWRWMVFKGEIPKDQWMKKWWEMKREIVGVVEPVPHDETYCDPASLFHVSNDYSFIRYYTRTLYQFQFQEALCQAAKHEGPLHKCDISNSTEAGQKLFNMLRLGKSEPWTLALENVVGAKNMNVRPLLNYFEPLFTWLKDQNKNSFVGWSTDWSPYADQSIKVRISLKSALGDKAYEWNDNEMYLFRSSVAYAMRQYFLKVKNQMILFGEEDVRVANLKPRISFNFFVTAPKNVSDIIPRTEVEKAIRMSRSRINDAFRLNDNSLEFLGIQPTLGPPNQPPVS
B1: binds. B2: binds. B3: binds. B4: binds. B5: binds.
